In US20150346192A1:

Columns and labels:
[1] = target: hypothetical protein LOC297607 (rat) (UniProt D4A770); assay: IP of RBL-2H3 lysate on nickel beads, MS/MS ProtScore; 1st of 3 experiments
[2] = target: hypothetical protein LOC297607 (rat) (UniProt D4A770); assay: IP of RBL-2H3 lysate on nickel beads, MS/MS ProtScore; 2nd of 3 experiments
[3] = target: hypothetical protein LOC297607 (rat) (UniProt D4A770); assay: IP of RBL-2H3 lysate on nickel beads, MS/MS ProtScore; 3rd of 3 experiments

hypothetical protein LOC297607 (rat), sequence (D4A770 whole entry): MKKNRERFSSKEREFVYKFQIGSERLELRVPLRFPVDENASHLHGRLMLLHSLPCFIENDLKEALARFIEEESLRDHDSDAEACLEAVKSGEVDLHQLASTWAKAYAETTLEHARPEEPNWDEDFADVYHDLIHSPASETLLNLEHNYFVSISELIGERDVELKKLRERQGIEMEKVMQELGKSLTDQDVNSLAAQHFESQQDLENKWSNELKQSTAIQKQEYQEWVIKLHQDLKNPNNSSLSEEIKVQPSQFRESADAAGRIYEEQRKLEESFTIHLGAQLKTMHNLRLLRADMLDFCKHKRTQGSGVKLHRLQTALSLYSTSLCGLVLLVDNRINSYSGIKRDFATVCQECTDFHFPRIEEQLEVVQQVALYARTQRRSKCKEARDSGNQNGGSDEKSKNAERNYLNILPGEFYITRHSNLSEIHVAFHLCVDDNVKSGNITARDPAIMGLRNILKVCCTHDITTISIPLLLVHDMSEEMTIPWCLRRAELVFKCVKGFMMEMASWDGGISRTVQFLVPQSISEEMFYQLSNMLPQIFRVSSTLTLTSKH

irrelevant VH
Protscore IP [1]: 0 | Protscore IP [2]: 0 | Protscore IP [3]: 2
